Reference: patent publication US20160264649A1

Key:
Assay in all cases: cell-based or functional assay
[1] = target: HIV-1 SF162 Env on pseudovirus (HIV-1) (UniProt P19550)
[2] = target: HIV-1 MGRM-G-014 Env (HIV-1)
[3] = target: HIV-1 IAVI-C3 Env (HIV-1)
[4] = target: HIV-1 MGRM-F1-015 Env (HIV-1)
[5] = target: HIV-1 THR0.18 (Acute) Env on pseudovirus (HIV-1)
[6] = target: HIV-1 MGRM-AG-005 Env (HIV-1)
[7] = target: HIV-1 TRJ0.58 (Acute) Env on pseudovirus (HIV-1)
[8] = target: HIV-1 MGRM-D-016 Env (HIV-1)
[9] = target: HIV-1 MGRM-C-025 Env on pseudovirus (HIV-1)
[10] = target: HIV-1 MGRM-G-025 Env (HIV-1)
[11] = target: HIV-1 MGRM-Chronic-B-024 Env on pseudovirus (HIV-1)
[12] = target: HIV-1 MGRM-Chronic-B-020 Env on pseudovirus (HIV-1)
[13] = target: HIV-1 93UG077 Env (HIV-1)
[14] = target: HIV-1 MGRM-F1-004 Env (HIV-1)
[15] = target: HIV-1 93TH305 Env on pseudovirus (HIV-1)
[16] = target: HIV-1 MGRM-G-016 Env (HIV-1)
[17] = target: HIV-1 JRFL Env on pseudovirus (HIV-1)
[18] = target: HIV-1 MGRM-AG-013 Env (HIV-1)
[19] = target: HIV-1 MGRM-D-018 Env (HIV-1)
[20] = target: HIV-1 MGRM-Chronic-B-002 Env on pseudovirus (HIV-1)
[21] = target: HIV-1 MGRM-D-001 Env (HIV-1)
[22] = target: HIV-1 MGRM-D-011 Env (HIV-1)
[23] = target: HIV-1 MGRM-Chronic-B-012 Env on pseudovirus (HIV-1)
HIV-1 NL43 Env (HIV-1) = target: HIV-1 NL43 Env (HIV-1)
[24] = target: HIV-1 98IN022 Env on pseudovirus (HIV-1)
[25] = target: HIV-1 MGRM-AG-011 Env (HIV-1)
[26] = target: HIV-1 SC422661.8 (Acute) Env on pseudovirus (HIV-1)
[27] = target: HIV-1 MGRM-D-029 Env (HIV-1)
[28] = target: HIV-1 MGRM-AG-009 Env (HIV-1)
[29] = target: HIV-1 MGRM-Chronic-B-008 Env on pseudovirus (HIV-1)
[30] = target: HIV-1 MGRM-D-020 Env (HIV-1)
[31] = target: HIV-1 MGRM-D-024 Env (HIV-1)
[32] = target: HIV-1 MGRM-D-003 Env (HIV-1)
[33] = target: HIV-1 MGRM-C-023 Env on pseudovirus (HIV-1)
[34] = target: HIV-1 MGRM-C-020 Env on pseudovirus (HIV-1)
[35] = target: HIV-1 MGRM-AG-012 Env (HIV-1)
[36] = target: HIV-1 MGRM-F1-006 Env (HIV-1)
[37] = target: HIV-1 MGRM-AE-007 Env (HIV-1)
[38] = target: HIV-1 92UG005 Env (HIV-1)
[39] = target: HIV-1 MGRM-F1-016 Env (HIV-1)
[40] = target: HIV-1 92RW020 Env (HIV-1)
[41] = target: HIV-1 MGRM-D-013 Env (HIV-1)
[42] = target: HIV-1 MGRM-G-011 Env (HIV-1)
[43] = target: HIV-1 JRCSF Env on pseudovirus (HIV-1) (UniProt P20871)
[44] = target: HIV-1 MGRM-G-009 Env (HIV-1)
[45] = target: HIV-1 93MW959 Env on pseudovirus (HIV-1)
[46] = target: HIV-1 MGRM-F1-021 Env (HIV-1)
[47] = target: HIV-1 93IN905 Env on pseudovirus (HIV-1)
[48] = target: HIV-1 MGRM-C-004 Env on pseudovirus (HIV-1)
[49] = target: HIV-1 QH0692.42 (Acute) Env on pseudovirus (HIV-1)
[50] = target: HIV-1 MGRM-D-004 Env (HIV-1)

Q: For 2G12 (antibody), which IC50 [1] is on record?
A: Its IC50 is 1.67 µg/mL.

Q: What about the IC50 (µg/ml), pseudovirus neutralization [2] of the same substance?
A: Its IC50 (µg/ml), pseudovirus neutralization is greater than 50 µg/mL.

Q: And the neutralization IC50 [3]?
A: Its neutralization IC50 is greater than 50 µg/mL.

Q: And the neutralization IC90 [3]?
A: The neutralization IC90 was greater than 50 µg/mL.

Q: And the IC50 (pseudovirus neutralization) [4]?
A: The IC50 (pseudovirus neutralization) was greater than 50 µg/mL.

Q: What about the IC50 [5] of the same substance?
A: The IC50 was greater than 50 µg/mL.

Q: And the IC50 (µg/ml), pseudovirus neutralization [6]?
A: Its IC50 (µg/ml), pseudovirus neutralization is greater than 50 µg/mL.

Q: What about the IC50 [7] of the same substance?
A: The IC50 was greater than 50 µg/mL.

Q: What about the IC50 (µg/ml), pseudovirus neutralization [8] of the same substance?
A: The IC50 (µg/ml), pseudovirus neutralization was greater than 50 µg/mL.

Q: What about the IC50 [9] of the same substance?
A: The IC50 was greater than 50 µg/mL.

Q: What about the IC50 (µg/ml), pseudovirus neutralization [10] of the same substance?
A: The IC50 (µg/ml), pseudovirus neutralization was 31.9 µg/mL.

Q: And the IC50 [11]?
A: The IC50 was greater than 50 µg/mL.

Q: And the IC50 [12]?
A: The IC50 was 0.2 µg/mL.

Q: And the neutralization IC50 [13]?
A: The neutralization IC50 was greater than 50 µg/mL.

Q: What about the neutralization IC90 [13] of the same substance?
A: Its neutralization IC90 is greater than 50 µg/mL.

Q: And the IC50 (pseudovirus neutralization) [14]?
A: The IC50 (pseudovirus neutralization) was greater than 50 µg/mL.

Q: And the IC50 [15]?
A: The IC50 was 0.55 µg/mL.

Q: What about the IC50 (µg/ml), pseudovirus neutralization [16] of the same substance?
A: Its IC50 (µg/ml), pseudovirus neutralization is greater than 50 µg/mL.

Q: What about the IC50 [17] of the same substance?
A: The IC50 was 1.45 µg/mL.

Q: What about the IC50 (µg/ml), pseudovirus neutralization [18] of the same substance?
A: Its IC50 (µg/ml), pseudovirus neutralization is 0.95 µg/mL.

Q: And the IC50 (µg/ml), pseudovirus neutralization [19]?
A: The IC50 (µg/ml), pseudovirus neutralization was 0.12 µg/mL.

Q: And the IC50 [20]?
A: The IC50 was greater than 50 µg/mL.

Q: And the IC50 (µg/ml), pseudovirus neutralization [21]?
A: The IC50 (µg/ml), pseudovirus neutralization was greater than 50 µg/mL.

Q: What about the IC50 (µg/ml), pseudovirus neutralization [22] of the same substance?
A: Its IC50 (µg/ml), pseudovirus neutralization is 1.5 µg/mL.

Q: What about the IC50 [23] of the same substance?
A: The IC50 was 0.22 µg/mL.

Q: And the neutralization IC50 (HIV-1 NL43 Env (HIV-1))?
A: Its neutralization IC50 is 0.75 µg/mL.

Q: And the neutralization IC90 (HIV-1 NL43 Env (HIV-1))?
A: Its neutralization IC90 is 15.8 µg/mL.

Q: And the IC50 [24]?
A: The IC50 was greater than 50 µg/mL.

Q: What about the IC50 (µg/ml), pseudovirus neutralization [25] of the same substance?
A: The IC50 (µg/ml), pseudovirus neutralization was greater than 50 µg/mL.

Q: What about the IC50 [26] of the same substance?
A: Its IC50 is 0.84 µg/mL.

Q: And the IC50 (µg/ml), pseudovirus neutralization [27]?
A: The IC50 (µg/ml), pseudovirus neutralization was greater than 50 µg/mL.

Q: And the IC50 (µg/ml), pseudovirus neutralization [28]?
A: Its IC50 (µg/ml), pseudovirus neutralization is greater than 50 µg/mL.

Q: What about the IC50 [29] of the same substance?
A: The IC50 was 0.55 µg/mL.

Q: And the IC50 (µg/ml), pseudovirus neutralization [30]?
A: Its IC50 (µg/ml), pseudovirus neutralization is greater than 50 µg/mL.

Q: What about the IC50 (µg/ml), pseudovirus neutralization [31] of the same substance?
A: The IC50 (µg/ml), pseudovirus neutralization was greater than 50 µg/mL.

Q: What about the IC50 (µg/ml), pseudovirus neutralization [32] of the same substance?
A: The IC50 (µg/ml), pseudovirus neutralization was greater than 50 µg/mL.

Q: What about the IC50 [33] of the same substance?
A: Its IC50 is greater than 50 µg/mL.

Q: What about the IC50 [34] of the same substance?
A: The IC50 was 18.6 µg/mL.

Q: What about the IC50 (µg/ml), pseudovirus neutralization [35] of the same substance?
A: The IC50 (µg/ml), pseudovirus neutralization was 1.94 µg/mL.

Q: What about the IC50 (pseudovirus neutralization) [36] of the same substance?
A: The IC50 (pseudovirus neutralization) was greater than 50 µg/mL.

Q: What about the IC50 (µg/ml), pseudovirus neutralization [37] of the same substance?
A: Its IC50 (µg/ml), pseudovirus neutralization is greater than 50 µg/mL.

Q: And the IC50 (µg/ml), pseudovirus neutralization [38]?
A: The IC50 (µg/ml), pseudovirus neutralization was greater than 50 µg/mL.

Q: And the neutralization IC50 [38]?
A: Its neutralization IC50 is greater than 50 µg/mL.

Q: And the neutralization IC90 [38]?
A: The neutralization IC90 was greater than 50 µg/mL.

Q: And the IC50 (pseudovirus neutralization) [39]?
A: The IC50 (pseudovirus neutralization) was greater than 50 µg/mL.

Q: And the neutralization IC50 [40]?
A: The neutralization IC50 was 0.56 µg/mL.

Q: What about the neutralization IC90 [40] of the same substance?
A: Its neutralization IC90 is 6.23 µg/mL.

Q: What about the IC50 (µg/ml), pseudovirus neutralization [41] of the same substance?
A: The IC50 (µg/ml), pseudovirus neutralization was greater than 50 µg/mL.

Q: What about the IC50 (µg/ml), pseudovirus neutralization [42] of the same substance?
A: The IC50 (µg/ml), pseudovirus neutralization was greater than 50 µg/mL.

Q: What about the IC50 [43] of the same substance?
A: The IC50 was 0.37 µg/mL.

Q: And the IC50 (µg/ml), pseudovirus neutralization [44]?
A: Its IC50 (µg/ml), pseudovirus neutralization is greater than 50 µg/mL.

Q: And the IC50 [45]?
A: The IC50 was greater than 50 µg/mL.

Q: And the IC50 (pseudovirus neutralization) [46]?
A: Its IC50 (pseudovirus neutralization) is 14.1 µg/mL.

Q: What about the IC50 [47] of the same substance?
A: The IC50 was greater than 50 µg/mL.

Q: And the IC50 [48]?
A: Its IC50 is greater than 50 µg/mL.

Q: What about the IC50 [49] of the same substance?
A: Its IC50 is 4.39 µg/mL.

Q: And the IC50 (µg/ml), pseudovirus neutralization [50]?
A: The IC50 (µg/ml), pseudovirus neutralization was greater than 50 µg/mL.
